# Assay results reported in patent publication US11242370B2, “Neuregulin-4 compounds and methods of use” (Eli Lilly and Company, priority 2019, dated 2022).
# Marks after values point to notes of the source that are not given here.
# What was measured:
# rat HER2/HER4 = target: T1, rat HER2/HER4 (Rattus norvegicus, UniProt Q62956); assay: Rat HER2/HER4 phospho-ERK 1/2 assay, purified proteins, CHO-K1 cells; assay type: cell-based; conditions: for % Maximal NRG1 activity: maximal signal relative to native human NRG1 per plate; for EC50: purified proteins, phospho-ERK1/2
# T1 construct: expressed in transfected cells
# T1 sequence (Q62956 26-1308): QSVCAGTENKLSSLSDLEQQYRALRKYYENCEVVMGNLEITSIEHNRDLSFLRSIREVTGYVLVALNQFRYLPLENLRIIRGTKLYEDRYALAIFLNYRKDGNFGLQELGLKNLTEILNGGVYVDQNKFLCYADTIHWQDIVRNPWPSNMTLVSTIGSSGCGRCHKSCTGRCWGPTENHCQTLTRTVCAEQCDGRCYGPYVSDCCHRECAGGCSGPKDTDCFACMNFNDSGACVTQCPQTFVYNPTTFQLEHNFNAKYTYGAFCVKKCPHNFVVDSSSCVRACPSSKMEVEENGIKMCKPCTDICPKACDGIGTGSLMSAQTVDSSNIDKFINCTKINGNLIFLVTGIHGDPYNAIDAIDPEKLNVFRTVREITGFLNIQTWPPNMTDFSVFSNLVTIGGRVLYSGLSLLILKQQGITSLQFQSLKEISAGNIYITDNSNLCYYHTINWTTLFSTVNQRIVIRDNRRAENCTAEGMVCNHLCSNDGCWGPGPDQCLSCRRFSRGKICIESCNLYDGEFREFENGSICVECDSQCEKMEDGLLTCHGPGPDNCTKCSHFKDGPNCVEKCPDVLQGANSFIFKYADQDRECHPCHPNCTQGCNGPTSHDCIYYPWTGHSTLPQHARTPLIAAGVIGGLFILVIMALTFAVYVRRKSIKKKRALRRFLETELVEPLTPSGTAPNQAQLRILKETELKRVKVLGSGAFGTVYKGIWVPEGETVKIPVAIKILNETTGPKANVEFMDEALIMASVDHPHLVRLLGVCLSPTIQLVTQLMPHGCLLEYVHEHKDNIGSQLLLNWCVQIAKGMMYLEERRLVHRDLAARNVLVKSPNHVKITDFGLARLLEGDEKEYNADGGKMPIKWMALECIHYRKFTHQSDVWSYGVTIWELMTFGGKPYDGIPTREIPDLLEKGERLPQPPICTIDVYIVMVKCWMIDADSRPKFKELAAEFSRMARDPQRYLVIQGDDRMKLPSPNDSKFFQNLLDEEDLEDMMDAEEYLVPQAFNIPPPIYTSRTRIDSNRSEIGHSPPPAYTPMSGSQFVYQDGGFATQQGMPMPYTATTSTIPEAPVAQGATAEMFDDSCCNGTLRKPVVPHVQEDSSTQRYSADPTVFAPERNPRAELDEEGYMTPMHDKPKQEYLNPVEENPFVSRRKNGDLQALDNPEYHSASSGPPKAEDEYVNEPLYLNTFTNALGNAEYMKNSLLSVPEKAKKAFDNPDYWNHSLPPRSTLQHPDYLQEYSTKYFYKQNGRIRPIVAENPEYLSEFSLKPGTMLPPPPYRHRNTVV
# T1 sequence (P06494 23-1257 partner): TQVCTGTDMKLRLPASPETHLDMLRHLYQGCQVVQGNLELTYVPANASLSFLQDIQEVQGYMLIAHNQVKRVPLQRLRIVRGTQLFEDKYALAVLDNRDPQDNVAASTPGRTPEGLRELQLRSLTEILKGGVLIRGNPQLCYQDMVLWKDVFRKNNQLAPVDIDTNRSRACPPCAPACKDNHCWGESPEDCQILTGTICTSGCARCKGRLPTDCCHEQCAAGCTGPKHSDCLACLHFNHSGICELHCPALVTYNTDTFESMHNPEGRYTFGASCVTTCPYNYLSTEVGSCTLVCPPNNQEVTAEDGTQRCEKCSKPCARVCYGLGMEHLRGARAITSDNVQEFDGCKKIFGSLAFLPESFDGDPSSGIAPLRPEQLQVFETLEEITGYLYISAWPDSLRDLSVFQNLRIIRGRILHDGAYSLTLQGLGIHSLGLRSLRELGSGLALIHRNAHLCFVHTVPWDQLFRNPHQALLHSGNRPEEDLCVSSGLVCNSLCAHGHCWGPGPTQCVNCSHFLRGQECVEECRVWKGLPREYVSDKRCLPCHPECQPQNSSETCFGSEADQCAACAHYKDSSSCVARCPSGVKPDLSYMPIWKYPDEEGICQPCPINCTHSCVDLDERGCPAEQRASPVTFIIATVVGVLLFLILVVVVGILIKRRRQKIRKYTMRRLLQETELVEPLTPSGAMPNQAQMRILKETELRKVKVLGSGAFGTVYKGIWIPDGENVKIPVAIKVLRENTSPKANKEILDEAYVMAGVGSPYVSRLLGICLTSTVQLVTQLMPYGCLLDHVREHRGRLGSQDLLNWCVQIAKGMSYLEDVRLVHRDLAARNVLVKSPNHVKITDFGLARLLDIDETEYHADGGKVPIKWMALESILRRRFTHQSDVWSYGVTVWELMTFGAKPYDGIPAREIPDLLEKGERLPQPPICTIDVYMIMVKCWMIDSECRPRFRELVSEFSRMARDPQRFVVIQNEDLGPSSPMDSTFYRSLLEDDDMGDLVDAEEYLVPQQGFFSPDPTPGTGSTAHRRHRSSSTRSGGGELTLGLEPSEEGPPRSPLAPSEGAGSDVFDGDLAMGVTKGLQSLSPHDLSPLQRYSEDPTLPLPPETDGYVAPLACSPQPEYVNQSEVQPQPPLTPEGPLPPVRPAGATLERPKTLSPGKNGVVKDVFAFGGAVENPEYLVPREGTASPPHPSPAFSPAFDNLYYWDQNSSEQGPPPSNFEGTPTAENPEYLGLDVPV
# Description: (§1) A cell based assay utilizing CHO-K1 cells overexpressing human or rat HER receptors is used to determine activity of NRG4 compounds. CHO-K1 cells (ATCC) are grown in DMEM-F12 3:1 with 5% FBS with 20 mM HEPES, 40 μg/mL L-Proline, lx antibiotics and were split 1:5 every 2-3 days with TripLE Express (Gibco). Cells are transfected with plasmid DNA encoding HER receptors in pairs (hHER2-3, hHER2-4, rHER2-3 and rHER2-4) with Fugene 6 (Promega) according to the manufacturer's instructions. […] Transfected cells are selected with Puromycin (12 ug/ml) and Hygromycin (1 mg/ml) for 3-4 weeks and clonal lines are obtained by limited dilution cloning into 96 well plates. Clonal lines are selected by appropriate gene expression of HER2, HER3 or HER4 by Taqman method. Lines with appropriate receptor expression are confirmed by NRG1 induced phospho-ERK 1/2 responses. Clones are grown up, harvested, aliquoted into cryovials and then frozen under liquid nitrogen for long-term storage.
# A phospho-ERK1/2 activity assay is utilized with CHO-K1 cells overexpressing human or rat HER receptors to determine potencies and selectivity of purified NRG4 compounds. CHO-K1 cell lines expressing the human or rat HER receptors are cultured with selection medium (DMEM-F12 3:1 with 5% FBS with 20 mM HEPES, 40 μg/mL L-Proline, 1× antibiotics, 12 μg/mL puromycin, 1 mg/mL Hygromycin B). On Day −1 (the day before phospho-ERK1/2 assay), cells are washed once with PBS, detached with enzyme free cell dissociation solution (GIBCO cat #13151-014), and resuspended in plating medium (DMEM-F12 3:1 with 20 mM HEPES, lx antibiotics, 0.2% FBS). Cells are plated in a 96-well Poly-D-Lysine coated plate (BD cat #354640) at 10,000 cells per 0.1 mL per well. Cells are cultured in a tissue culture incubator at 37° C. 5% CO2 overnight. On Day 1 (the day of pERK1/2 assay), plates are incubated at room temperature for 30 min. The culture media are removed followed by addition of 504, ligand at various concentrations diluted in PBS-20 mM HEPES-0.005% BSA. Native human NRG1 and NRG4 peptides are purchased from Reprokine (Tampa, Fla.). The stimulation time is 30 min (except for hHER2-4 1H6 line in which 15 min is used for stimulation). At the end of stimulation, ligands are removed and 704, Lysis buffer (made according to manufacturer's recipe, Perkin Elmer cat #ALSU-PERK-A10K) is added. Plates are incubated at room temperature for 10 min on plate shaker with 350 rpm agitation, then on ice for 1 hour without shaking. 304, of cell lysis is transferred to a 96-well white Optiplate (Perkin Elmer cat #6002290) for phospho-ERK1/2 assay. Briefly 7.5 μL acceptor beads are added to 30 μL lysis in Optiplate. The plate is covered with aluminum foil and incubated at room temperature for 1 hour on plate shaker with 350 rpm agitation. Then 7.5 μL donor beads are added and the plate is covered with aluminum foil and incubated at room temperature for 2 hours on plate shaker with 350 rpm agitation or at 4° C. for overnight (warm up plate at room temperature for 2 h before reading). Alpha signal data are obtained on an Envision instrument (Alpha Technology-compatible plate reader). Donor beads and acceptor beads are made according to assay protocol. The data shown are generated with either the AlphaScreen SureFire p-ERK1/2 (Thr202/Tyr204) assay kit (Cat #TGRES50k) or the AlphaLISA® SureFire® Ultra™ p-ERK 1/2 (Thr202/Tyr204) assay kit (Perkin Elmer cat #ALSU-PERK-A10K). The activity of the NRG1 peptide was similar in both types of assays. Raw data obtained from the Envision instrument is imported into GraphPad Prism software (version 7). The EC50 value is generated by a variable slope-four parameter dose response curve. The % of maximal NRG1 activity data are generated by expressing the average maximal raw data for the NRG4 compound over the average maximal raw data for the native human NRG1 per plate and multiplying by 100. Data are provided below in Tables 7-9. N values reflect number of independent assays run. […]
# rat HER2/HER3 = target: T2, rat HER2/HER3 (Rattus norvegicus, UniProt Q62799); assay: Rat HER2/HER3 phospho-ERK 1/2 assay, purified proteins, CHO-K1 cells; assay type: cell-based; conditions: phospho-ERK1/2
# T2 construct: expressed in transfected cells
# T2 sequence (Q62799 20-1339): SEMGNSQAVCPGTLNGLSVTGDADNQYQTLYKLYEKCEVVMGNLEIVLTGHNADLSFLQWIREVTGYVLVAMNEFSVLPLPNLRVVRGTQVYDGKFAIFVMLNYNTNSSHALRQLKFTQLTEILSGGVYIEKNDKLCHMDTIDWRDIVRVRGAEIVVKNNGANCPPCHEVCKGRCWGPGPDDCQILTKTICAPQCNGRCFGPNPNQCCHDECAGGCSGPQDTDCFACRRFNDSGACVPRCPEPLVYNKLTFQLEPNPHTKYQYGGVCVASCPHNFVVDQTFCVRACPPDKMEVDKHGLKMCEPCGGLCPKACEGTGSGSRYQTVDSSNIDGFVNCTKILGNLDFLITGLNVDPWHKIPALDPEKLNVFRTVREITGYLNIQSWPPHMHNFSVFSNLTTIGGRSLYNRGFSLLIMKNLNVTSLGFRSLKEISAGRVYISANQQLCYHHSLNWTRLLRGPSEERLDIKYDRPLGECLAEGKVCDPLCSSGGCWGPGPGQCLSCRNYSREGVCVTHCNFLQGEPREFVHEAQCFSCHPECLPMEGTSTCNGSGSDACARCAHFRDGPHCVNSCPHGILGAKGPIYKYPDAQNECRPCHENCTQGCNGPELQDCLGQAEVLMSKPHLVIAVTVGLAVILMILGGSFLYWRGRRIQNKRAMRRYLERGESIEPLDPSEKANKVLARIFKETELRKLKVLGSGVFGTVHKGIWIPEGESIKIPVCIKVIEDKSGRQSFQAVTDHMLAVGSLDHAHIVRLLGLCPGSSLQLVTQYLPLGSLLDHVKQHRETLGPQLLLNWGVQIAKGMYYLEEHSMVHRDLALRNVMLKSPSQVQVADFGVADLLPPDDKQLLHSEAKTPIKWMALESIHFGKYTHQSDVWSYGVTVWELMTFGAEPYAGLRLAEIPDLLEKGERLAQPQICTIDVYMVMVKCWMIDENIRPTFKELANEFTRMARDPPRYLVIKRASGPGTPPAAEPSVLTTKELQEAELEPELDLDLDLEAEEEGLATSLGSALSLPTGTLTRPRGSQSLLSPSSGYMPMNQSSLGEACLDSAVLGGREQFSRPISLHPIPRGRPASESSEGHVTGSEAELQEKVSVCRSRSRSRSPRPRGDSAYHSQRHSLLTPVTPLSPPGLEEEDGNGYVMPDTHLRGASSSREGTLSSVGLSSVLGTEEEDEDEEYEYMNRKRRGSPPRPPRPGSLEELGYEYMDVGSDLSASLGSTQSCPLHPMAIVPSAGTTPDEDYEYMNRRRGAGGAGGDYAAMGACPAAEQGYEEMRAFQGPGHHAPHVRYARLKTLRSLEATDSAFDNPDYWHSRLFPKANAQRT
# T2 sequence (P06494 23-1257 partner): as the sequence (P06494 23-1257 partner) above
# Description: as §1
# A phospho-ERK1/2 activity assay is utilized with CHO-K1 cells overexpressing human or rat HER receptors to determine potencies and selectivity of purified NRG4 compounds. CHO-K1 cell lines expressing the human or rat HER receptors are cultured with selection medium (DMEM-F12 3:1 with 5% FBS with 20 mM HEPES, 40 μg/mL L-Proline, 1× antibiotics, 12 μg/mL puromycin, 1 mg/mL Hygromycin B). On Day −1 (the day before phospho-ERK1/2 assay), cells are washed once with PBS, detached with enzyme free cell dissociation solution (GIBCO cat #13151-014), and resuspended in plating medium (DMEM-F12 3:1 with 20 mM HEPES, lx antibiotics, 0.2% FBS). Cells are plated in a 96-well Poly-D-Lysine coated plate (BD cat #354640) at 10,000 cells per 0.1 mL per well. […] Then 7.5 μL donor beads are added and the plate is covered with aluminum foil and incubated at room temperature for 2 hours on plate shaker with 350 rpm agitation or at 4° C. for overnight (warm up plate at room temperature for 2 h before reading). Alpha signal data are obtained on an Envision instrument (Alpha Technology-compatible plate reader). […]
# [1] = Plasma pharmacokinetics in rats (toxicology studies); conditions: rat, in vivo, sc, 0.3 mg/kg
# Description: Example 11 is administered in a single 3 mg/kg dose to male and female monkeys by SC bolus injection.
# [2] = tested on: rat model of heart failure with reduced ejection fraction (HFrEF); assay: Rat MI model, captopril, Example 10 or combination, echocardiography; assay type: in vivo; design: Left Ventricle Diameter (end diastole): unit not given here
# Description: A nonclinical efficacy pharmacology study is conducted in a rat model of heart failure with reduced ejection fraction (HFrEF) to evaluate cardiac function and structure changes after captopril treatment, Example 10 treatment or combination treatment.
# The left coronary artery is permanently ligated. All rats are individually housed in a temperature and humidity controlled room and maintained on a 12 hour light/dark cycle. Two to three weeks after surgery, rats undergo transthoracic echocardiography for determination of ejection fraction (EF %) and left ventricle dimensions (LVD) using a Vevo 2100 ultrasound system. Rats are randomized across treatment groups according to EF % and LVD.
# Measurements of EF % and LVD are expressed as mean values±standard error (SE). Statistical analysis is performed with JMP® 13 software (SAS Institute, Inc.; Cary, N.C.) and Dunnett's Test is used for statistical comparisons across treatment groups. Statistical significance is accepted at P<0.05.
# Three weeks after MI surgery, animals are randomized to 2 treatment groups (Placebo or captopril, 2 g/L in drinking water, ad lib) according to EF % and LVD. Three weeks and four weeks after dosing starts, cardiac function (EF %) and structure (LVD) are evaluated by transthoracic echocardiography. Animals are further randomized to additional groups based on cardiac function (EF %) and structure (LVD) to the following groups: Placebo, Example 10, captopril and Example 10+captopril. Animals in the Example 10 groups receive a single injection on week 4 after the 2nd randomization. Cardiac function (EF %) and structure (LVD) are evaluated on week 5 and 6.
# rats = assay: Toxicology study in rats, cardiac tissue inspection; conditions: single SC injection of 0.3 mg/kg
# [3] = Week 4 (2nd randomization; before the single injection of Example 10)
# [4] = Week 5 (single injection of Example 10 on week 4; captopril 2 g/L in drinking water)
# [5] = Week 6 (single injection of Example 10 on week 4; captopril 2 g/L in drinking water)
Molecule,% Maximal NRG1 activity (rat HER2/HER4),EC50 (rat HER2/HER4) [nM],EC50 (rat HER2/HER3) [nM],duration of detectable plasma concentrations [1] [h],"Ejection Fraction [2, 3] [%]","Left Ventricle Diameter (end diastole) [2, 3]","Ejection Fraction [2, 4]","Left Ventricle Diameter (end diastole) [2, 4]","Ejection Fraction [2, 5]","Left Ventricle Diameter (end diastole) [2, 5]",inspections of tissue (cardiac toxicity) (rats)
WT NRG1: wild type human NRG1; native peptide purchased from Reprokine in Tables 7-9; comparator in the screening assays of Tables 4 and 6,100%,0.29 ± 0.05,32 ± 14,–,–,–,–,–,–,–,–
"Example 10: NRG4 D1G/V22Q/E44K, (GGGGS)3 linker, SEQ ID NO: 19, fused to IgG Fc dimer SEQ ID NO: 6 and 7 (protein) chain 1: GGGGSGGGGSGGGGSGHEEPCGPSHKSFCLNGGLCYQIPTIPSPFCRCVENYTGARCEKVFL chain 2: ECPPCPAPPVAGPSVFLFPPKPKDTLMISRTPEVTCVVVDVSHEDPEVQFNWYVDGVEVHNAKTKPREEQFNSTFRVVSVLTVVHQDWLNGKEYKCKVSNKGLPAPIEKTISKTKGQPREPQVYTLPPSREEMTKNQVSLWCLVKGFYPSDIAVEWESNGQPENNYKTTPPVLDSDGSFFLYSKLTVDKSRWQQGNVFSCSVMHEALHNHYTQKSLSLSPG chain 3: ECPPCPAPPVAGPSVFLFPPKPKDTLMISRTPEVTCVVVDVSHEDPEVQFNWYVDGVEVHNAKTKPREEQFNSTFRVVSVLTVVHQDWLNGKEYKCKVSNKGLPAPIEKTISKTKGQPREPQVYTLPPSREEMTKNQVSLSCAVKGFYPSDIAVEWESNGQPENNYKTTPPVLDSDGSFFLVSKLTVDKSRWQQGNVFSCSVMHEALHNHYTQKSLSLSPG",88 ± 7 (N = 2) %,0.12 ± 0.04,> 100,> 168,33.3,9.33,46.5* %,9.35,46.0* %,9.01,cardiac degeneration and necrosis
